Assay results taken from IntAct's records for PubMed 9528767.

B1: Small nuclear ribonucleoprotein E (Saccharomyces cerevisiae), Q12330 (parent)
chain: MSNKVKTKAMVPPINCIFNFLQQQTPVTIWLFEQIGIRIKGKIVGFDEFMNVVIDEAVEIPVNSADGKEDVEKGTPLGKILLKGDNITLITSAD
B2: Small nuclear ribonucleoprotein E (Saccharomyces cerevisiae), Q12330 (parent)
chain: B1 chain
partner: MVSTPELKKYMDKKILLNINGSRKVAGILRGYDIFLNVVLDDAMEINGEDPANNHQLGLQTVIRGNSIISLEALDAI

Variants of: B1
Settings: with ruxf_yeast SMX3, P54999
Chain of ruxf_yeast SMX3, P54999 (P54999 whole entry): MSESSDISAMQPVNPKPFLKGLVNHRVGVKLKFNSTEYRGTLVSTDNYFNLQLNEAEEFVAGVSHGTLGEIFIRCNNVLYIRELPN

effect of a mutation on the interaction	Variant
disrupting interaction strength	MSNKVKTKAMVPPINCIFNFLQQQTPVTIWLFEQIGIRIKDKIVGFDEFMNVVIDEAVEIPVNSADGKEDVEKGTPLGKILLKGDNITLITSAD [G41D]
disrupting interaction strength	MSNKVKTKAMVPPINCIFNFLQQQTPETIWLFEQIGIRIKGKIVGFDEFMNVVIDEAVEIPVNSADGKEDVEKGTPLGKILLKGDNITLITSAD [V27E]
disrupting interaction strength	MSNKVKTKAMVPPINCIFNFLQQQTPVTIWLFEQIGIRIKGKIVGFDEFMNVVNDEAVEIPVNSADGKEDVEKGTPLGKILLKGDNITLITSAD [I54N]
disrupting interaction strength	MSNKVKTKAMVPPINCIFNFLQQQTPVTKWLFEQIGIRIKGKIVGFDEFMNVVIDEAVEIPVNSADGKEDVEKGTPLGKILLKGDNITLITSAD [I29K]
with no effect	MSNKVETKAMVPPINCIFNFLQQQTPVTIWLFEQIGIRIKGKIVGFDEFMNVVIDEAVEIPVNSADGKEDVEKGTPLGKILLKGDNITLITSAD [K6E]
disrupting interaction strength	MSNKVKTKAMVPPINCIFNFLQQQTPVTIWLFEQIGIRIKGKIVGFDEFMNVVIDEAVEIPVNSADGKEDVEKGTPLGKIPLKGDNITLITSAD [L81P]
decreasing interaction strength	MSNKVKTKAMVPPINCIFNFLQQQTPVTIWLFEQIGIRIKGKIVGFDEFANVVIDEAVEIPVNSADGKEDVEKGTPLGKILLKGDNITLITSAD [M50A]
with no effect	MSNKVKTKAMVPPINCIFNFLQQQTPVTIWSFEQIGIRIKGKIVGFDEFMNVVIDEAVEIPVNSADGKEDVEKGTPLGKILLKGDNITLITSAD [L31S]
decreasing interaction strength	MSNKVKTKAMVPPINCIFNFLQQQTPVTIWLFEQIGIRIKGKIVGFDEFMAVVIDEAVEIPVNSADGKEDVEKGTPLGKILLKGDNITLITSAD [N51A]
with no effect	MSNKVKTKAMVPPINCIFNFLQQQTPVTIWLFEQIGIRIKGKIVGFDEFMNVVIDEAVAIPVDSADGKEDVEKGTPLGKILLKGDNITLITSAD [E59A;N63D]
decreasing interaction strength	MSNKVKTKAMVPPINCIFNFLQQQTPVTIWLFEQIGIRIKGKIVGFDEFMNVVIDEAVEIPVNSADGKEDVEKGTPLGKILLKGDNITLRTSAD [I90R]
with no effect	MSNKVKTKAVVPPINCIFNFLQQQTPVTIWLFEQIGIRIKGKIVGFDEFMNVVIDEAVEIPVNSADGKEDVEKGTPLGKILLKGDNITLITSAD [M10V]
disrupting interaction strength	MSNKVKTKAMVPPINCIFNFLLQQTPVTIWLFEQIGIRIKGKIVGFDEFMNVVIDEAVEIPVNSADGKEDVEKGTPLGKILLKGDNITLITSAD [Q22L]
decreasing interaction strength	MSNKVKTKAMVPPINCIFNFLQQQTPVTIWLFEQIGIRIKGKIVGFDEFMNVVIDEAVEIPVNSADGKEDVEKGTPLGKFLLKGDNITLITSAD [I80F]
with no effect	MSNKVKTKAMVPPINCIFNFLQQQTPVTIWLFEQIGIRIKGKIVGFDEFMNVVIDEAVEIPVNSADGKEDVEKGTSLGKILLKGDNITLITSAD [P76S]
disrupting interaction strength	MSNKVKTKAMVPPINCIFNFLQQQTPVTIWLFEQIGIRIKGKIVGFHEFMNVVIDEAVEIPVNSADGKEDVEKGTPLGKILLKGDNITLITSAD [D47H]
disrupting interaction strength	MSNKVKTKAMVPPINCIFNFLQQQTPVTIWLFEQIGIRIKGKIVGFAEFMNVVIDEAVEIPVNSADGKEDVEKGTPLGKILLKGDNITLITSAD [D47A]
with no effect	MSNKVKTKAMVPPINCIFNFLQQQTPVTIWLFEQIGIRIKGKIVVFDEFMNVVIDEAVEIPVNSADGKEDVEKGTPLGKILLKGDNITLITSAD [G45V]
increasing interaction strength	MSTKVKTKAMVPPINCIFNFLQQQTPVTIWLFEQIGIRIKGKIVGFDEFMNVVIDEAVEIPVNSADGKEDVEKGTPLGKILLKGDNITLITSAD [N3T]

Variants of: B2
Settings: with ruxg_yeast SMX2, P40204

effect of a mutation on the interaction	Variant
disrupting interaction strength	MSNKVKTKAMVPPINCIFNFLLQQTPVTIWLFEQIGIRIKGKIVGFDEFMNVVIDEAVEIPVNSADGKEDVEKGTPLGKILLKGDNITLITSAD [Q22L]

Variants of: B2
Settings: with ruxg_yeast SMX2, P40204
Remark: another data set of the same source

effect of a mutation on the interaction	Variant
with no effect	MSNKVETKAMVPPINCIFNFLQQQTPVTIWLFEQIGIRIKGKIVGFDEFMNVVIDEAVEIPVNSADGKEDVEKGTPLGKILLKGDNITLITSAD [K6E]
disrupting interaction strength	MSNKVKTKAMVPPINCIFNFLQQQTPETIWLFEQIGIRIKGKIVGFDEFMNVVIDEAVEIPVNSADGKEDVEKGTPLGKILLKGDNITLITSAD [V27E]
with no effect	MSNKVKTKAVVPPINCIFNFLQQQTPVTIWLFEQIGIRIKGKIVGFDEFMNVVIDEAVEIPVNSADGKEDVEKGTPLGKILLKGDNITLITSAD [M10V]
with no effect	MSTKVKTKAMVPPINCIFNFLQQQTPVTIWLFEQIGIRIKGKIVGFDEFMNVVIDEAVEIPVNSADGKEDVEKGTPLGKILLKGDNITLITSAD [N3T]
